Measured values from US20250127915A1 (SHANGHAI JUNSHI BIOSCIENCES, published 2025).
Substitutions are numbered along the chain they refer to. Where two headings read alike, the source gives them in different places.

B1: ADC-4-MMAE (antibody, human IgG1, kappa, V domains shown)
VH: EVQLVESGGGLVQPGGSLRLSCAASGFTLNNFGMHWVRQAPGKGLEWVSSISSGSGTIYYADSVKGRFTISRDNPKNSLYLQMNSLRAEDTAVYYCARAYYGNGFSFWGQGTLVTVSS
VL: DIVMTQSPDSLAVSLGERATINCKSSQSLLNSGNQKNYLTWYQQKPGQPPKLLIYWASTRESGVPDRFSGSGSGTDFTLTISSLQAEDVAVYYCQNVYSYPLTFGQGTKLEIKR
modifications: MC-VC-PAB-MMAE (vc-MMAE) coupled after TCEP reduction of the antibody; positions not given; DAR 4.55
notes: also called JS107-4-MMAE
B2: ADC-3-MMAE (antibody, V domains shown)
VH: QIQLVQSGSELKKPGESVKVSCKASGYTFTNYGMNWVRQAPGQGLEWMGWINTYTGESTYADGFTGRFVFSSDTSARTAYLQISSLKAEDTAVYFCATLGYGNSLAYWGQGTLVTVSS
VL: B1 VL with K36R, V97N, S99F, L102F
modifications: MC-VC-PAB-MMAE (vc-MMAE) coupled after TCEP reduction of the antibody; positions not given; DAR 3.97
notes: also called JS107-3-MMAE
B3: ADC-4-MMAF (antibody, human IgG1, kappa, V domains shown)
VH: B1 VH
VL: B1 VL
modifications: MC-MMAF coupled after TCEP reduction of the antibody; positions not given; DAR 3.85
notes: also called JS107-4-MMAF
B4: ADC-5-MMAE (antibody, human IgG1, kappa, V domains shown)
VH: B1 VH
VL: B1 VL
modifications: MC-VC-PAB-MMAE (vc-MMAE) coupled after TCEP reduction of the antibody; positions not given; DAR 4.1
notes: also called JS107-5-MMAE
B5: JS012-Chi2-hu2-v3-2 (antibody, human IgG1, kappa, V domains shown)
VH: B1 VH
VL: B1 VL
notes: also called JS107-4
B6: JS012-Chi9-hu7 (antibody, human IgG1, kappa, V domains shown)
VH: B2 VH
VL: B1 VL with K36R, V97N, S99F, L102F
notes: also called JS107-3; JS012-chi9-hu07
B7: JS012-Chi2-hu2-v3-2a (antibody, human IgG1, kappa, V domains shown)
VH: B1 VH
VL: B1 VL
notes: also called JS107-5

Legend:
human CLDN-18.2 [1] = target: T1, human CLDN-18.2 (human, UniProt P56856 1-261); experiment: flow cytometry on NUGC4-CLDN-18.2 cells overexpressing human CLDN-18.2, 4 °C 30 min, fluorescent secondary antibody, MFI-PE
T1 construct: also called Claudin18.2
Experimental: Finally, the fluorescence intensity was detected by BD CantoII flow cytometer. […] The antibody dose-dependent binding curve was fitted by GraphPad (FIGS. 1a-1d) and EC50 was calculated. The positive controls were the corresponding monoclonal antibodies, and the negative control was anti-KLH IgG1.

human CLDN-18.2 [2] = target: T1, human CLDN-18.2; experiment: cell-based or functional assay
human CLDN-18.2 [3] = target: T1, human CLDN-18.2; experiment: cell-based or functional assay; remark: listed apart in the source
human CLDN-18.2 [4] = target: T1, human CLDN-18.2; experiment: cell-based or functional assay; remark: listed apart in the source

Binder | EC50 (human CLDN-18.2 [1]) [µg/mL] | EC50 of endocytosis (MFI-APC of CypHer5E-labelled conjugate in NUGC4-CLDN-18.2 cells, 37 °C 4 h, FACS) (human CLDN-18.2 [2]) [µg/mL] | IC50 of inhibition of NUGC4-CLDN-18.2 cells proliferation (Cell titer Glo, 48 h) (human CLDN-18.2 [3]) [µg/mL] | EC50 of endocytosis (MFI-APC of CypHer5E-labelled conjugate in NUGC4-CLDN-18.2 cells, 37 °C 4 h, FACS) (human CLDN-18.2 [4]) [µg/mL] | EC50 of endocytosis (MFI-APC of CypHer5E-labelled antibody in NUGC4-CLDN-18.2 cells, 37 °C 4 h, FACS) (human CLDN-18.2 [4]) [µg/mL]
B1 | 0.495 | 2.67 | 0.011 | – | –
B2 | 2.96 | 0.937 | 0.0127 | – | –
B3 | 1.21 | 1.61 | 0.00936 | – | –
B4 | 0.23 | – | – | 21.8 | –
B5 | 1.65 | – | – | – | –
B6 | 3.76 | – | – | – | –
B7 | 0.347 | – | – | – | 58.8
